Measured values as given in the supplement of paper PMC10567573.

B1: ZBTB22 (parent)
chain: AVLAASSPYFHDQVLLKGMTSISL

Variants of: B1
Experiment: protein stability index of a GFP-peptide fusion (GPS, HEK-293T) (PSI 1-6); higher = more stable
Settings: c terminus: a fixed tail appended
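Note: lentivirally expressed fusions sorted by FACS into six bins by GFP to DsRed ratio, PSI derived from sequencing read proportions per bin multiplied by bin number.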

Variant	protein stability index
AVLAAGSPYFHDQVLLKGMTSISL [S6G]	2.75
AVLAATSPYFHDQVLLKGMTSISL [S6T]	2.4
AVLAADSPYFHDQVLLKGMTSISL [S6D]	2.61
AVLAAESPYFHDQVLLKGMTSISL [S6E]	1.41
AVLAARSPYFHDQVLLKGMTSISL [S6R]	1.67
AVLAAPSPYFHDQVLLKGMTSISL [S6P]	2.23
AVLAAISPYFHDQVLLKGMTSISL [S6I]	1.97
AVLAAWSPYFHDQVLLKGMTSISL [S6W]	3.82
AVLAASSPYFHDHVLLKGMTSISL [Q13H]	2.48
AVLAASSPYFHDGVLLKGMTSISL [Q13G]	2.15
AVLAASSPYFHDKVLLKGMTSISL [Q13K]	1.92
AVLAASSPYFHDAVLLKGMTSISL [Q13A]	3.38
AVLAASSPYFHDFVLLKGMTSISL [Q13F]	3
AVLAASSPYFHDIVLLKGMTSISL [Q13I]	4.9
AVLAASSPYFHDVVLLKGMTSISL [Q13V]	2.02
AVLIASSPYFHDQVLLKGMTSISL [A4I]	2.48
AVLKASSPYFHDQVLLKGMTSISL [A4K]	2.92
AVLMASSPYFHDQVLLKGMTSISL [A4M]	2.04
AVLSASSPYFHDQVLLKGMTSISL [A4S]	1.88
AVLGASSPYFHDQVLLKGMTSISL [A4G]	1.92
AVLHASSPYFHDQVLLKGMTSISL [A4H]	4.29
AVLDASSPYFHDQVLLKGMTSISL [A4D]	1.15
AVLAASSPYFHDQVLLIGMTSISL [K17I]	3.47
AVLAASSPYFHDQVLLPGMTSISL [K17P]	2.05

Variant	protein stability index
AVLAASSPYFHDQVLLYGMTSISL [K17Y]	2.88
AVLAASSPYFHDQELLKGMTSISL [V14E]	2.47
AVLAASSPYFHDQCLLKGMTSISL [V14C]	3.27
AVLAASSPYFHDQDLLKGMTSISL [V14D]	1.71
AVLAASSPYFHDQRLLKGMTSISL [V14R]	3.36
AVLAASSPYFHDQSLLKGMTSISL [V14S]	3.06
AVLAASSPYFHDQFLLKGMTSISL [V14F]	1.8
AVLAASSPYFHDQALLKGMTSISL [V14A]	2.47
AVLAASSPYFHDQMLLKGMTSISL [V14M]	2.72
AVLAASSPYFHDQKLLKGMTSISL [V14K]	1.04
AVLAASSPFFHDQVLLKGMTSISL [Y9F]	3.55
AVLAASSPIFHDQVLLKGMTSISL [Y9I]	4.18
AVLAASSPDFHDQVLLKGMTSISL [Y9D]	2.17
AVLAASSPPFHDQVLLKGMTSISL [Y9P]	1.84
AVLAASSRYFHDQVLLKGMTSISL [P8R]	4.82
AVLAASSLYFHDQVLLKGMTSISL [P8L]	3.83
AVLAASSIYFHDQVLLKGMTSISL [P8I]	2.73
AVLAASSFYFHDQVLLKGMTSISL [P8F]	2.55
AVLAASSHYFHDQVLLKGMTSISL [P8H]	2.88
AVLAASSDYFHDQVLLKGMTSISL [P8D]	2.5
AVLAASSAYFHDQVLLKGMTSISL [P8A]	2.55
AVLAASSPYFHDQVLLKGMTYISL [S21Y]	3.85
AVLAASSPYFHDQVLLKGMTLISL [S21L]	3.04
AVLAASSPYFHDQVLLKGMTQISL [S21Q]	2.67

Variant	protein stability index
AVLAASSPYFHDQVLLKGMTAISL [S21A]	2.04
AVLAASSPYFHDQVLLKGMTDISL [S21D]	2.17
AVLAASSPYFHDQVLLKGMTFISL [S21F]	2.52
AVLAASSPYFHDQVLLKGMTNISL [S21N]	2.11
NVLAASSPYFHDQVLLKGMTSISL [A1N]	2.3
HVLAASSPYFHDQVLLKGMTSISL [A1H]	4.3
YVLAASSPYFHDQVLLKGMTSISL [A1Y]	2.9
TVLAASSPYFHDQVLLKGMTSISL [A1T]	4.21
IVLAASSPYFHDQVLLKGMTSISL [A1I]	2.99
QVLAASSPYFHDQVLLKGMTSISL [A1Q]	2.39
CVLAASSPYFHDQVLLKGMTSISL [A1C]	3.85
AVLAASSPYFHDQVLLKGMHSISL [T20H]	1.6
AVLAASSPYFHDQVLLKGMESISL [T20E]	2.54
AVLAASSPYFHDQVLLKGMLSISL [T20L]	3.1
AVLAASSPYFHDQVLLKGMKSISL [T20K]	2.32
AVLAASSPYFHDQVLLKGMNSISL [T20N]	2.51
AVLAASSPYFHDQVLLKGMMSISL [T20M]	3.42
AVLAASSPYFHDQVLSKGMTSISL [L16S]	2.26
AVLAASSPYFHDQVLNKGMTSISL [L16N]	2.37
AVLAASSPYFHDQVLKKGMTSISL [L16K]	3
AVLAASSPYFHDQVLWKGMTSISL [L16W]	2.44
AVLAASSPYFHDQVLGKGMTSISL [L16G]	2.28
AVLAASSPYFHDQVLQKGMTSISL [L16Q]	2.32
AVLAASSPYFHDQVLPKGMTSISL [L16P]	2.27

Variant	protein stability index
AVLAASSPYHHDQVLLKGMTSISL [F10H]	2.49
AVLAASSPYNHDQVLLKGMTSISL [F10N]	1.92
AVLAASSPYGHDQVLLKGMTSISL [F10G]	2.6
AVLAASSPYQHDQVLLKGMTSISL [F10Q]	1.65
AVLAASSPYYHDQVLLKGMTSISL [F10Y]	2.19
AVLAASSPYWHDQVLLKGMTSISL [F10W]	2.24
AVLAASSPYVHDQVLLKGMTSISL [F10V]	2.44
AVLAASSPYRHDQVLLKGMTSISL [F10R]	1.41
AVLAASSPYKHDQVLLKGMTSISL [F10K]	1.73
AVLAASSPYCHDQVLLKGMTSISL [F10C]	2.28
AVLAASSPYEHDQVLLKGMTSISL [F10E]	1.76
AVLAASSPYFHDQVLLKGMTSISV [L24V]	1.53
AVLAASSPYFHDQVLLKGMTSISY [L24Y]	3.14
AVLAASSPYFHDQVLLKGMTSISA [L24A]	1.58
AVLAASSPYFHDQVLLKGMTSISF [L24F]	3.47
AVLAASSPYFHDQVLLKGMTSISH [L24H]	1.95
AVLAASSPYFHDQVLLKGMTSISD [L24D]	1.76
AVLAASSPYFHDQVLLKGMTSISI [L24I]	3.01
AVLAASSPYFHDQVLLKGMTSISP [L24P]	1.62
AVLAASSPYFHDQVLLKGMTSISK [L24K]	1.95
AVLAASSPYFHDQVLLKGMTSISN [L24N]	1.83
AVLAASSPYFHDQVLLKGMTSISQ [L24Q]	1.7
